# B1: TR2: Testicular Orphan Nuclear Receptor 2 (NR2C1), cDNA driver (protein, UniProt P13056 1-603, looked up)
# Nuclear receptor subfamily 2 …: MATIEEIAHQIIEQQMGEIVTEQQTGQKIQIVTALDHNTQGKQFILTNHDGSTPSKVILARQDSTPGKVFLTTPDAAGVNQLFFTTPDLSAQHLQLLTDNSPDQGPNKVFDLCVVCGDKASGRHYGAVTCEGCKGFFKRSIRKNLVYSCRGSKDCIINKHHRNRCQYCRLQRCIAFGMKQDSVQCERKPIEVSREKSSNCAASTEKIYIRKDLRSPLTATPTFVTDSESTRSTGLLDSGMFMNIHPSGVKTESAVLMTSDKAESCQGDLSTLANVVTSLANLGKTKDLSQNSNEMSMIESLSNDDTSLCEFQEMQTNGDVSRAFDTLAKALNPGESTACQSSVAGMEGSVHLITGDSSINYTEKEGPLLSDSHVAFRLTMPSPMPEYLNVHYIGESASRLLFLSMHWALSIPSFQALGQENSISLVKAYWNELFTLGLAQCWQVMNVATILATFVNCLHNSLQQDKMSTERRKLLMEHIFKLQEFCNSMVKLCIDGYEYAYLKAIVLFSPDHPSLENMEQIEKFQEKAYVEFQDYITKTYPDDTYRLSRLLLRLPALRLMNATITEELFFKGLIGNIRIDSVIPHILKMEPADYNSQIIGHSI
# B2: TR4: Testicular Orphan Nuclear Receptor 4 (NR2C2), cDNA driver (protein, UniProt P49116 1-596, looked up)
# Nuclear receptor subfamily 2 …: MTSPSPRIQIISTDSAVASPQRIQIVTDQQTGQKIQIVTAVDASGSPKQQFILTSPDGAGTGKVILASPETSSAKQLIFTTSDNLVPGRIQIVTDSASVERLLGKTDVQRPQVVEYCVVCGDKASGRHYGAVSCEGCKGFFKRSVRKNLTYSCRSNQDCIINKHHRNRCQFCRLKKCLEMGMKMESVQSERKPFDVQREKPSNCAASTEKIYIRKDLRSPLIATPTFVADKDGARQTGLLDPGMLVNIQQPLIREDGTVLLATDSKAETSQGALGTLANVVTSLANLSESLNNGDTSEIQPEDQSASEITRAFDTLAKALNTTDSSSSPSLADGIDTSGGGSIHVISRDQSTPIIEVEGPLLSDTHVTFKLTMPSPMPEYLNVHYICESASRLLFLSMHWARSIPAFQALGQDCNTSLVRACWNELFTLGLAQCAQVMSLSTILAAIVNHLQNSIQEDKLSGDRIKQVMEHIWKLQEFCNSMAKLDIDGYEYAYLKAIVLFSPDHPGLTSTSQIEKFQEKAQMELQDYVQKTYSEDTYRLARILVRLPALRLMSSNITEELFFTGLIGNVSIDSIIPYILKMETAEYNGQITGASL
# B3: ERR2: Estrogen Related Receptor β (NR3B2, ERRb), cDNA driver (protein, UniProt O95718 1-433, looked up)
# Steroid hormone receptor ERR2: MSSDDRHLGSSCGSFIKTEPSSPSSGIDALSHHSPSGSSDASGGFGLALGTHANGLDSPPMFAGAGLGGTPCRKSYEDCASGIMEDSAIKCEYMLNAIPKRLCLVCGDIASGYHYGVASCEACKAFFKRTIQGNIEYSCPATNECEITKRRRKSCQACRFMKCLKVGMLKEGVRLDRVRGGRQKYKRRLDSESSPYLSLQISPPAKKPLTKIVSYLLVAEPDKLYAMPPPGMPEGDIKALTTLCDLADRELVVIIGWAKHIPGFSSLSLGDQMSLLQSAWMEILILGIVYRSLPYDDKLVYAEDYIMDEEHSRLAGLLELYRAILQLVRRYKKLKVEKEEFVTLKALALANSDSMYIEDLEAVQKLQDLLHEALQDYELSQRHEEPWRTGKLLLTLPLLRQTAAKAVQHFYSVKLQGKVPMHKLFLEMLEAKV
# B4: Erb: Estrogen Receptor β (NR3A2, ERb), cDNA driver (protein, UniProt Q92731 1-530, looked up)
# Estrogen receptor beta: MDIKNSPSSLNSPSSYNCSQSILPLEHGSIYIPSSYVDSHHEYPAMTFYSPAVMNYSIPSNVTNLEGGPGRQTTSPNVLWPTPGHLSPLVVHRQLSHLYAEPQKSPWCEARSLEHTLPVNRETLKRKVSGNRCASPVTGPGSKRDAHFCAVCSDYASGYHYGVWSCEGCKAFFKRSIQGHNDYICPATNQCTIDKNRRKSCQACRLRKCYEVGMVKCGSRRERCGYRLVRRQRSADEQLHCAGKAKRSGGHAPRVRELLLDALSPEQLVLTLLEAEPPHVLISRPSAPFTEASMMMSLTKLADKELVHMISWAKKIPGFVELSLFDQVRLLESCWMEVLMMGLMWRSIDHPGKLIFAPDLVLDRDEGKCVEGILEIFDMLLATTSRFRELKLQHKEYLCVKAMILLNSSMYPLVTATQDADSSRKLAHLLNAVTDALVWVIAKSGISSQQQSMRLANLLMLLSHVRHASNKGMEHLLNMKCKNVVPVYDLLLEMLNAHVLRGCKSSITGSECSPAEDSKSKEGSQNPQSQ
# B5: ERR3: Estrogen Related Receptor γ (NR3B3, ERRg), cDNA driver (protein, UniProt P62508 1-458, looked up)
# Estrogen-related receptor …: MDSVELCLPESFSLHYEEELLCRMSNKDRHIDSSCSSFIKTEPSSPASLTDSVNHHSPGGSSDASGSYSSTMNGHQNGLDSPPLYPSAPILGGSGPVRKLYDDCSSTIVEDPQTKCEYMLNSMPKRLCLVCGDIASGYHYGVASCEACKAFFKRTIQGNIEYSCPATNECEITKRRRKSCQACRFMKCLKVGMLKEGVRLDRVRGGRQKYKRRIDAENSPYLNPQLVQPAKKPYNKIVSHLLVAEPEKIYAMPDPTVPDSDIKALTTLCDLADRELVVIIGWAKHIPGFSTLSLADQMSLLQSAWMEILILGVVYRSLSFEDELVYADDYIMDEDQSKLAGLLDLNNAILQLVKKYKSMKLEKEEFVTLKAIALANSDSMHIEDVEAVQKLQDVLHEALQDYEAGQHMEDPRRAGKMLMTLPLLRQTSTKAVQHFYNIKLEGKVPMHKLFLEMLEAKV
# System: Bmal1 promoter
# Experiment: NHR-promoter luciferase screen, Bmal1 promoter
# Assay type: cell-based, mouse
# Conditions: Bmal1 promoter; HR component without or with ligand
# Method in brief: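 Luciferase activity was measured 48 h after transfection, normalized to LacZ and then to a control lacking NHR or ligand. CV-1 cells carried 100 ng Bmal1 reporter, 50 ng NHR construct and 50 ng LacZ.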
Molecule,"Luc. act., normalized to lacZ","Normalized Luc. act., normalized to control"
B1,10.8,0.7
B2,22.5,1.4
B3,10.6,0.7
B4,17.0,1.1
B5,9.5,0.6

# Same assay, conditions: transcription factor +/- ligand; control = 1.00
row,Molecule,mBmal1 promoter reporter activity
1,B1,0.69
2,B2,1.44
3,B3,0.68
4,B4,1.09
5,B5,0.61

# System: hIFNg promoter
# Experiment: NHR-promoter luciferase screen, hIFNg promoter
# Assay type: cell-based, human
# Conditions: IFNg promoter; HR component without or with ligand
# Method in brief: (§1)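 CV-1 cells were co-transfected with 50 ng NHR (homodimer or NHR/RXR heterodimer), 100 ng promoter-luciferase construct and 50 ng LacZ. Luciferase was normalized to LacZ and to a no-NHR/no-ligand control.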
Molecule,"Luc. act., normalized to lacZ","Normalized Luc. act., normalized to control"
B1,13.6,0.9
B2,42.5,2.7
B3,58.9,3.7
B4,22.0,1.4
B5,27.9,1.8

# Same assay, conditions: transcription factor +/- ligand; control = 1.00
row,Molecule,hIFNg promoter reporter activity
1,B1,0.85
2,B2,2.67
3,B3,3.70
4,B4,1.39
5,B5,1.75

# System: mDio2 promoter
# Experiment: NHR-promoter luciferase screen, mDio2 promoter
# Assay type: cell-based, mouse
# Conditions: Dio2; HR component without or with its ligand
# Method in brief: as §1
Molecule,"Luc. act., normalized to lacZ","Normalized Luc. act., normalized to control"
B1,33.8,2.2
B2,51.9,3.3
B3,39.5,2.5
B4,19.9,1.3
B5,85.6,5.4

# Same assay, conditions: transcription factor +/- ligand; control = 1.00
row,Molecule,mDio2 promoter reporter activity
1,B1,2.15
2,B2,3.31
3,B3,2.52
4,B4,1.27
5,B5,5.45

# System: mUCP3 promoter
# Experiment: NHR-promoter luciferase screen, mUCP3 promoter
# Assay type: cell-based, mouse
# Conditions: mUCP3 promoter reporter; HR without or with its ligand; relative to control
# Method in brief: as §1
row,Molecule,"Normalized Luc. act., normalized to control"
1,B1,2.0
2,B2,3.2
3,B3,3.3
4,B4,1.3
5,B5,3.1

# Same assay, conditions: mUCP3 promoter reporter; hormone receptor (HR) without or with its ligand
row,Molecule,"Luc. act., normalized to lacZ"
1,B1,1.4
2,B2,2.2
3,B3,2.2
4,B4,0.9
5,B5,2.1

# Same assay, conditions: transcription factor +/- ligand; control = 1.00
row,Molecule,mUCP3 promoter reporter activity
1,B1,2.01
2,B2,3.19
3,B3,3.32
4,B4,1.28
5,B5,3.06

# System: mADRP promoter
# Experiment: NHR-promoter luciferase screen, mADRP promoter
# Assay type: cell-based, mouse
# Conditions: ADRP promoter; HR/ligand component
# Method in brief: as §1
Molecule,"Luc. act., normalized to lacZ","Normalized Luc. act., normalized to control"
B1,684.7,1.4
B2,1003.3,2.0
B3,874.7,1.8
B4,536.9,1.1

# Same assay, conditions: transcription factor +/- ligand; control = 1.00
row,Molecule,mADRP promoter reporter activity
1,B1,1.38
2,B2,2.02
3,B3,1.76
4,B4,1.08
5,B5,3.37

# System: MCP-1 promoter
# Experiment: NHR-promoter luciferase screen, MCP-1 promoter
# Assay type: cell-based
# Conditions: MCP-1 promoter reporter; HR without or with its ligand; relative to control
# Method in brief: as §1
row,Molecule,"Normalized Luc. act., normalized to control"
1,B1,2.9
2,B2,2.1
3,B3,8.8
4,B4,1.4
5,B5,4.6

# Same assay, conditions: MCP-1 promoter reporter; hormone receptor (HR) without or with its ligand
row,Molecule,"Luc. act., normalized to lacZ"
1,B1,311.2
2,B2,229.9
3,B3,946.7
4,B4,146.9
5,B5,487.3

# Same assay, conditions: transcription factor +/- ligand; control = 1.00
row,Molecule,mMCP-1 promoter reporter activity
1,B1,2.91
2,B2,2.15
3,B3,8.84
4,B4,1.37
5,B5,4.55
